Measurements from publication PMC3017759.
Each block holds one substance with its values, some of them ahead of it.

Legend:
[1] = target: γc (Homo sapiens) (UniProt P31785); conditions: cited from earlier work
[2] = target: IL13Rα1 (Homo sapiens) (UniProt P78552); conditions: cited from earlier work
[3] = target: IL4Rα (Homo sapiens) (UniProt P24394); conditions: cited from earlier work
[4] = target: M. musculus (C57BL/6) IL4Rα extracellular domain (M. musculus (C57BL/6)) (UniProt P16382); assay: SPR; BIAcore 2000; about 1400 RU of IL4Rα immobilised on a CM5 chip by amine linkage; graded doses of IL4 in the mobile phase; HBS-EP (10 mM HEPES pH 7.4, 150 mM NaCl, 3 mM EDTA, 0.005% P-20); 25°C; flow 3 μl/min; 1:1 Langmuir fit; average of two independent experiments on two chips
UniProt P16382, sequence (P16382 26-233): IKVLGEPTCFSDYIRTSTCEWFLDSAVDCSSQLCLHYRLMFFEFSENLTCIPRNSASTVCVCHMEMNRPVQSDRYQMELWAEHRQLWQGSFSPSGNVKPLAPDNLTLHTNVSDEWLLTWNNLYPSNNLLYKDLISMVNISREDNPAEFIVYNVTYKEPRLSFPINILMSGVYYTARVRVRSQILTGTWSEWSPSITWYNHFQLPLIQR

UniProt P24394, sequence (P24394 26-232): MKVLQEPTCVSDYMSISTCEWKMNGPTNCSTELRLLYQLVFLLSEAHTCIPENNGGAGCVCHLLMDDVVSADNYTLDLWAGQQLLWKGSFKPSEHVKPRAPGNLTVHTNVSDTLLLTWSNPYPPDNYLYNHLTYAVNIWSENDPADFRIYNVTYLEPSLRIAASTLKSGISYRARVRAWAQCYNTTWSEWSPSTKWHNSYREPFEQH
UniProt P78552, sequence (P78552 22-343): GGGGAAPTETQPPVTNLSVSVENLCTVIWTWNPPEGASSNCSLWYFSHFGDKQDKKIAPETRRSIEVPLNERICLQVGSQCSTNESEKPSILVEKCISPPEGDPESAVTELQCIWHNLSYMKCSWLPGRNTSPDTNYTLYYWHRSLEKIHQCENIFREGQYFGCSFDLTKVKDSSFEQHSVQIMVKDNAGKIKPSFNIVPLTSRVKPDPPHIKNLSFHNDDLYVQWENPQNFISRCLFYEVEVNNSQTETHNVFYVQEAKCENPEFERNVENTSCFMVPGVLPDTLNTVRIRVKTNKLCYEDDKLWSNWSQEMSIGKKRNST
IL4, sequence (P05112 25-153): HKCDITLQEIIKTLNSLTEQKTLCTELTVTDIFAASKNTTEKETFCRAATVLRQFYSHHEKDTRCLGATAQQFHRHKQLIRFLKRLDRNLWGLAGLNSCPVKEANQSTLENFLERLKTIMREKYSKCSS
UniProt P31785, sequence (P31785 23-262): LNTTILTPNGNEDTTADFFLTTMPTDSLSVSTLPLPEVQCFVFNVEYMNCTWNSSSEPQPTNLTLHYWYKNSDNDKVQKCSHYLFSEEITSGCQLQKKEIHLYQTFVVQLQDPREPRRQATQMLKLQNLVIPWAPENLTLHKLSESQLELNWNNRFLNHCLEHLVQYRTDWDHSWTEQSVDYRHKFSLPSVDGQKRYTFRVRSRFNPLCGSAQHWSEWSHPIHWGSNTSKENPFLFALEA

Substance: IL4/IL4Rα complex (from UniProt P05112)
- Kd [1]: 500 nM
- Kd [2]: 500 nM

Substance: IL4 (from UniProt P05112)
- Kd [3]: 1 nM

- Ka [4]: 4.44e+09 M⁻¹
- Kd [4]: 0.226 nM
- koff [4]: 0.000713 s⁻¹
- kon [4]: 3.16e+06 M⁻¹ s⁻¹
Substance: recombinant CAST/Ei IL4 (interleukin-4, Mus musculus castaneus allotype) (from UniProt P07750 21-140) (ligand)
